Test system: T1, [KGHK-Cu]+ copper(II) complex of KGHK
T1 sequence: KGHK

recombinant isoform of human Angiotensin Converting Enzyme (rhACE) corresponding to the ectodomain somatic ACE
catalytic rate constant kobs for enzyme deactivation under oxidative conditions (ascorbate, dioxygen): kobs˜2.86×10^-2 min^-1 for enzyme deactivation

Source: patent US8445431
